The values that follow come from patent publication US20040018971A1 (published 2004).

To fix the notation:
B1: HER2/neu peptide, position 1174, 8 amino acids (peptide)
peptide: SPGKNGVV
notes: also called Her2/neu.1174
B2: HER2/neu peptide, position 127, 11 amino acids (peptide)
peptide: TPVTGASPGGL
notes: also called Her2/neu.127
B3: HER2/neu peptide, position 17, 9 amino acids (peptide)
peptide: PPGAASTQV
notes: also called Her2/neu.17
B4: HER2/neu peptide, position 1206, 8 amino acids (peptide)
peptide: QPHPPPAF
notes: also called Her2/neu.1206
B5: HER2/neu peptide, position 1148, 10 amino acids (peptide)
peptide: QPPSPREGPL
notes: also called Her2/neu.1148
B6: HER2/neu peptide, position 943, 11 amino acids (peptide)
peptide: QPPICTIDVYM
notes: also called Her2/neu.943
B7: HER2/neu peptide, position 649, 10 amino acids (peptide)
peptide: SPLTSIISAV
notes: also called Her2/neu.649
B8: HER2/neu peptide, position 196, 10 amino acids (peptide)
peptide: SPMCKGSRCW
notes: also called Her2/neu.196
B9: HER2/neu peptide, position 884, 8 amino acids (peptide)
peptide: VPIKWMAL
notes: also called Her2/neu.884
B10: HER2/neu peptide, position 38, 8 amino acids (peptide)
peptide: SPETHLDM
notes: also called Her2/neu.38
B11: HER2/neu peptide, position 944, 10 amino acids (peptide)
peptide: PPICTIDVYM
notes: also called Her2/neu.944
B12: HER2/neu peptide, position 393, 8 amino acids (peptide)
peptide: QPEQLQVF
notes: also called Her2/neu.393
B13: HER2/neu peptide, position 1151, 10 amino acids (peptide)
peptide: SPREGPLPAA
notes: also called Her2/neu.1151
B14: HER2/neu peptide, position 966, 8 amino acids (peptide)
peptide: RPRFRELV
notes: also called Her2/neu.966
B15: HER2/neu peptide, position 649, 9 amino acids (peptide)
peptide: SPLTSIISA
notes: also called Her2/neu.649
B16: HER2/neu peptide, position 284, 8 amino acids (peptide)
peptide: NPEGRYTF
notes: also called Her2/neu.284
B17: HER2/neu peptide, position 649, 11 amino acids (peptide)
peptide: SPLTSIISAVV
notes: also called Her2/neu.649
B18: HER2/neu peptide, position 488, 10 amino acids (peptide)
peptide: NPHQALLHTA
notes: also called Her2/neu.488
B19: HER2/neu peptide, position 706, 9 amino acids (peptide)
peptide: MPNQAQMRI
notes: T0001 prints N at residue 706; also called Her2/neu.706
B20: HER2/neu peptide, position 779, 8 amino acids (peptide)
peptide: SPYVSRLL
notes: also called Her2/neu.779
B21: HER2/neu peptide, position 943, 10 amino acids (peptide)
peptide: QPPICTIDVY
notes: also called Her2/neu.943
B22: HER2/neu peptide, position 1118, 10 amino acids (peptide)
peptide: VPLPSETDGY
notes: also called Her2/neu.1118
B23: HER2/neu peptide, position 1073, 9 amino acids (peptide)
peptide: SPLAPSEGA
notes: also called Her2/neu.1073
B24: HER2/neu peptide, position 944, 8 amino acids (peptide)
peptide: PPICTIDV
notes: also called Her2/neu.944
B25: HER2/neu peptide, position 1214, 9 amino acids (peptide)
peptide: SPAFDNLYY
notes: also called Her2/neu.1214
B26: HER2/neu peptide, position 1193, 11 amino acids (peptide)
peptide: NPEYLTPQGGA
notes: also called Her2/neu.1193
B27: HER2/neu peptide, position 884, 11 amino acids (peptide)
peptide: VPIKWMALESI
notes: also called Her2/neu.884
B28: HER2/neu peptide, position 1118, 11 amino acids (peptide)
peptide: VPLPSETDGYV
notes: also called Her2/neu.1118
B29: HER2/neu peptide, position 1245, 9 amino acids (peptide)
peptide: NPEYLGLDV
notes: also called Her2/neu.1245
B30: HER2/neu peptide, position 706, 10 amino acids (peptide)
peptide: MPNQAQMRIL
notes: as for B19
B31: HER2/neu peptide, position 1233, 11 amino acids (peptide)
peptide: PPSTFKGTPTA
notes: also called Her2/neu.1233
B32: HER2/neu peptide, position 568, 10 amino acids (peptide)
peptide: QPQNGSVTCF
notes: also called Her2/neu.568
B33: HER2/neu peptide, position 393, 11 amino acids (peptide)
peptide: QPEQLQVFETL
notes: also called Her2/neu.393
B34: HER2/neu peptide, position 760, 8 amino acids (peptide)
peptide: SPKANKEI
notes: also called Her2/neu.760
B35: HER2/neu peptide, position 1214, 8 amino acids (peptide)
peptide: SPAFDNLY
notes: also called Her2/neu.1214
B36: HER2/neu peptide, position 1245, 11 amino acids (peptide)
peptide: NPEYLGLDVPV
notes: also called Her2/neu.1245
B37: HER2/neu peptide, position 944, 9 amino acids (peptide)
peptide: PPICTIDVY
notes: also called Her2/neu.944
B38: HER2/neu peptide, position 998, 8 amino acids (peptide)
peptide: SPLDSTFY
notes: also called Her2/neu.998
B39: HER2/neu peptide, position 499, 11 amino acids (peptide)
peptide: RPEDECVGEGL
notes: also called Her2/neu.499
B40: HER2/neu peptide, position 38, 9 amino acids (peptide)
peptide: SPETHLDML
notes: also called Her2/neu.38
B41: HER2/neu peptide, position 760, 9 amino acids (peptide)
peptide: SPKANKEIL
notes: also called Her2/neu.760
B42: HER2/neu peptide, position 282, 10 amino acids (peptide)
peptide: MPNPEGRYTF
notes: also called Her2/neu.282
B43: HER2/neu peptide, position 1174, 11 amino acids (peptide)
peptide: SPGKNGVVKDV
notes: also called Her2/neu.1174
B44: HER2/neu peptide, position 944, 11 amino acids (peptide)
peptide: PPICTIDVYMI
notes: also called Her2/neu.944
B45: HER2/neu peptide, position 998, 11 amino acids (peptide)
peptide: SPLDSTFYRSL
notes: also called Her2/neu.998
B46: HER2/neu peptide, position 1151, 9 amino acids (peptide)
peptide: SPREGPLPA
notes: also called Her2/neu.1151
B47: HER2/neu peptide, position 1149, 9 amino acids (peptide)
peptide: PPSPREGPL
notes: also called Her2/neu.1149
B48: HER2/neu peptide, position 1210, 8 amino acids (peptide)
peptide: PPAFSPAF
notes: also called Her2/neu.1210
B49: HER2/neu peptide, position 855, 10 amino acids (peptide)
peptide: SPNHVKITDF
notes: also called Her2/neu.855
B50: HER2/neu peptide, position 943, 9 amino acids (peptide)
peptide: QPPICTIDV
notes: also called Her2/neu.943
B51: HER2/neu peptide, position 94, 8 amino acids (peptide)
peptide: VPLQRLRI
notes: also called Her2/neu.94
B52: HER2/neu peptide, position 133, 8 amino acids (peptide)
peptide: SPGGLREL
notes: also called Her2/neu.133
B53: HER2/neu peptide, position 158, 10 amino acids (peptide)
peptide: NPQLCYQDTI
notes: also called Her2/neu.158
B54: HER2/neu peptide, position 1240, 10 amino acids (peptide)
peptide: TPTAENPEYL
notes: also called Her2/neu.1240
B55: HER2/neu peptide, position 701, 10 amino acids (peptide)
peptide: TPSGAMPNQA
notes: T0001 prints N at residue 706; also called Her2/neu.701
B56: HER2/neu peptide, position 801, 10 amino acids (peptide)
peptide: MPYGCLLDHV
notes: also called Her2/neu.801
B57: HER2/neu peptide, position 779, 10 amino acids (peptide)
peptide: SPYVSRLLGI
notes: also called Her2/neu.779
B58: HER2/neu peptide, position 1206, 11 amino acids (peptide)
peptide: QPHPPPAFSPA
notes: also called Her2/neu.1206
B59: HER2/neu peptide, position 1209, 9 amino acids (peptide)
peptide: PPPAFSPAF
notes: also called Her2/neu.1209
B60: HER2/neu peptide, position 284, 10 amino acids (peptide)
peptide: NPEGRYTFGA
notes: also called Her2/neu.284
B61: HER2/neu peptide, position 1214, 10 amino acids (peptide)
peptide: SPAFDNLYYW
notes: also called Her2/neu.1214
B62: HER2/neu peptide, position 158, 11 amino acids (peptide)
peptide: NPQLCYQDTIL
notes: also called Her2/neu.158
B63: HER2/neu peptide, position 1210, 11 amino acids (peptide)
peptide: PPAFSPAFDNL
notes: also called Her2/neu.1210
B64: HER2/neu peptide, position 1136, 10 amino acids (peptide)
peptide: QPEYVNQPDV
notes: also called Her2/neu.1136
B65: HER2/neu peptide, position 1209, 8 amino acids (peptide)
peptide: PPPAFSPA
notes: also called Her2/neu.1209
B66: HER2/neu peptide, position 133, 10 amino acids (peptide)
peptide: SPGGLRELQL
notes: also called Her2/neu.133
B67: HER2/neu peptide, position 966, 11 amino acids (peptide)
peptide: RPRFRELVSEF
notes: also called Her2/neu.966
B68: HER2/neu peptide, position 1227, 11 amino acids (peptide)
peptide: PPERGAPPSTF
notes: also called Her2/neu.1227

This experiment deals with T1, HLA-B*0702 (human).
T1 construct: also called B7 supertype prototype molecule
The experiment can be described thus: inhibition of 125I standard peptide binding to purified HLA.
Regarding B1, the relative binding ratio is 0.023 ratio to standard peptide.
As for B2, the relative binding ratio is -0.0002 ratio to standard peptide.
The result for B3 reads 0.0001 ratio to standard peptide; that for B4, 0.0002 ratio to standard peptide; that for B5, 0.0014 ratio to standard peptide.
The result for B6 reads 0.002 ratio to standard peptide; that for B7, 0.09 ratio to standard peptide; that for B8, 0.0021 ratio to standard peptide.
For B9, the relative binding ratio is 1.4 ratio to standard peptide.
Consider B10, for which the relative binding ratio is 0.0014 ratio to standard peptide.
Take B11: the relative binding ratio is 0.0004 ratio to standard peptide.
The value for B12 was -0.0002 ratio to standard peptide; that for B13 was 0.46 ratio to standard peptide; that for B14 was 0.041 ratio to standard peptide.
B15: the relative binding ratio is 0.015 ratio to standard peptide.
The value for B16 was -0.0002 ratio to standard peptide; that for B17 was 0.025 ratio to standard peptide.
For B18, the relative binding ratio was 0.0005 ratio to standard peptide.
In the case of B19, the relative binding ratio was 0.009 ratio to standard peptide.
Regarding B20, the relative binding ratio was 0.044 ratio to standard peptide.
Take B21: the relative binding ratio was 0.0001 ratio to standard peptide.
With B22, the relative binding ratio is 0.0001 ratio to standard peptide.
The value for B23 was 0.003 ratio to standard peptide.
For B24, the relative binding ratio was -0.0006 ratio to standard peptide.
As to B25, the relative binding ratio is 0.0001 ratio to standard peptide.
On to B26, for which the relative binding ratio was -0.0003 ratio to standard peptide.
Turning to B27, the relative binding ratio was 0.0017 ratio to standard peptide.
B28: the relative binding ratio was -0.0002 ratio to standard peptide.
Regarding B29, the relative binding ratio was 0.0001 ratio to standard peptide.
As for B30, the relative binding ratio was 0.049 ratio to standard peptide.
Regarding B31, the relative binding ratio is -0.0003 ratio to standard peptide.
The value for B32 was 0.0004 ratio to standard peptide; that for B33 was -0.0002 ratio to standard peptide; that for B34 was 0.058 ratio to standard peptide.
In the case of B35, the relative binding ratio was -0.0002 ratio to standard peptide.
With B36, the relative binding ratio was -0.0002 ratio to standard peptide.
Take B37: the relative binding ratio was 0.0001 ratio to standard peptide.
With B38, the relative binding ratio was -0.0006 ratio to standard peptide.
Regarding B39, the relative binding ratio is -0.0002 ratio to standard peptide.
As to B40, the relative binding ratio is 0.0005 ratio to standard peptide.
On to B41, for which the relative binding ratio is 0.12 ratio to standard peptide.
The value for B42 was 0.0001 ratio to standard peptide; that for B43 was -0.0002 ratio to standard peptide; that for B44 was 0.0064 ratio to standard peptide.
For the molecule B45, the relative binding ratio is 0.064 ratio to standard peptide.
The result for B46 reads 0.64 ratio to standard peptide; that for B47, 0.0054 ratio to standard peptide.
In the case of B48, the relative binding ratio was -0.0002 ratio to standard peptide.
B49: the relative binding ratio is 0.0016 ratio to standard peptide.
The value for B50 was 0.0001 ratio to standard peptide; that for B51 was 0.002 ratio to standard peptide.
With B52, the relative binding ratio is 0.055 ratio to standard peptide.
The value for B53 was 0.0001 ratio to standard peptide.
In the case of B54, the relative binding ratio was 0.0002 ratio to standard peptide.
The value for B55 was 0.0001 ratio to standard peptide; that for B56 was 0.0085 ratio to standard peptide.
As to B57, the relative binding ratio is 0.1 ratio to standard peptide.
As to B58, the relative binding ratio was 0.0003 ratio to standard peptide.
The value for B59 was 0.0002 ratio to standard peptide; that for B60 was 0.0001 ratio to standard peptide.
In the case of B61, the relative binding ratio is 0.0001 ratio to standard peptide.
With B62, the relative binding ratio is -0.0002 ratio to standard peptide.
Turning to B63, the relative binding ratio was -0.0002 ratio to standard peptide.
As for B64, the relative binding ratio was 0.0001 ratio to standard peptide.
The result for B65 reads -0.0002 ratio to standard peptide.
Turning to B66, the relative binding ratio is 0.058 ratio to standard peptide.
For B67, the relative binding ratio is 1.3 ratio to standard peptide.
Take B68: the relative binding ratio was -0.0003 ratio to standard peptide.
